Experimental data as given in the nanobody polyreactivity screen of Harvey et al. (2022).

Experiment: yeast display, Sf9 membrane polyspecificity reagent, FACS + sequencing; frameworks hold sequencing errors
Procedure, shortened: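 Nanobodies came from a synthetic yeast display library in Saccharomyces cerevisiae BJ5465, induced with galactose for 36–48 hours and stained for 1 hour at 4 °C with 10% biotinylated, detergent-solubilized Sf9 membrane reagent. Cells were enriched on streptavidin microbeads and then FACS-sorted, with low and high (top ~1%) gates set on anti-HA fluorescence for expression and streptavidin fluorescence for reagent binding. Each polyreactivity label reflects the gate a clone came from. Genes were amplified by colony PCR, sequenced by MiSeq 2 × 250 and filtered by CDR length.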

| Sequence | polyreactivity (PSR sort gate) |
| --- | --- |
| QVQLVESGGGLVQAGGSLRLSCAASGRTFGENAMGWYRQAPGKERELVAAITGGDSTNYADSVKGRFTISRDNAKNTVYLQMNSLKPEDTAVYYCAAYGVKVLWTLTTYDYWGQGTQVTVSS | low polyreactivity |
| QVQLVESGGGLVQAGGSLRLSCAASGRTFGFNVMGWYRQAPGKERELVAAISWSGGSTYYADSVKGRFTISRENAKNTVYLQMNSLKPEDTAVYSCNKRYVHRYGYWGQGTQVTVTS | low polyreactivity |
| QVQLVESGGGLVQAGGSLRLSCAASGRTFGFYAMGWYRQAPGKERELVATISSSGGSTYYADSVKGRFTISRDNAKNTVYLQMNSLKPEDTAVYYCAKVVSGWRSHYIGDYWGQGTQVTVSS | low polyreactivity |
| QVQLVESGGGLVQAGGSLRLSCAASGRTFGFYGMGWYRQAPGKEREFVAAITRRGGSTYYADSVKGRFTISRDNAKNTVYLQMNSLNPEDTAVYYCNAARGAYYRWWGFGSDYWGQGTQVTVSS | high polyreactivity |
| QVQLVESGGGLVQAGGSLRLSCAASGRTFGFYTMGWYRPAPGKERELVAAITSRGGITTYADSVKGRFTISRDNAKNTVYLQLNSLIPEDTAVYYCAASLRAPSLGHYYYWGQGTQVTVSS | high polyreactivity |
| QVQLVESGGGLVQAGGSLRLSCAASGRTFGGNAMGWYRQAPGKERELVASITKRSGSTYYADSVKGRFTISRDNAKNTVYLQMNSLKPEDTAVYYCNTKPSYYFFANTYYGYNDDYWGQGTQVTVSS | high polyreactivity |
| QVQLVESGGGLVQAGGSLRLSCAASGRTFGGNAMGWYRQAPGKERELVAVIRSTGGSTYYADSVKGRFTISRDNAKNTVYLQMNSLKPEDTAVYYCAKGRGRNFGYWGQGTQVTVSS | high polyreactivity |
| QVQLVESGGGLVQAGGSLRLSCAASGRTFGGNSMGWYRQAPGKERELVAAISGSGGSTYYADSVKGRFTISRDNAKNTVYLQMNSLKPEDTAVYYCAKASRKGWRYDSWGQGTQVTVSS | high polyreactivity |
| QVQLVESGGGLVQAGGSLRLSCAASGRTFGGNTMGWSRQAPGKERELVAAISSGGSTYYADSVKGRFTISRDNAKNTVYLQMNSLKPEDTAVYYCAKSDPVGYYWDDPVTFDYWGQGTQVTVSS | low polyreactivity |
| QVQLVESGGGLVQAGGSLRLSCAASGRTFGGYAMGWYRQAPGKERELVAAISKRSGSTYYADSVKGRFTISRDNAKNTVYLQMNSLKPEDTAVYYCNKVWFQRSVQPVEYDYWGQGTQVTVSS | high polyreactivity |
| QVQLVESGGGLVQAGGSLRLSCAASGRTFGGYAMGWYRQAPGKERELVAAISKSGGSTYYAVSVKGRFTISRDTAKNTVYLQMNSLKPEDTAVYYCAAQGSSYSTRVWRRYYYWGQGTQVTVSS | high polyreactivity |
| QVQLVESGGGLVQAGGSLRLSCAASGRTFGGYAMGWYRQAPGKESELVARISRSGGSTYYADSVKGRFTISRDNAKNTVYLQMNSLKPEDTAVYYCNTGLRNAYGWPQDDYWGQGTQVTVSS | low polyreactivity |
| QVQLVESGGGLVQAGGSLRLSCAASGRTFGIYAMGWYRQAPGKERELVAAITWSGDSTYYADSVKGRFTISRDNAKNTVYLQMNSLKPEDTAVYYCAADYVGVTSVRYDYWGQGTQVTVSS | low polyreactivity |
| QVQLVESGGGLVQAGGSLRLSCAASGRTFGIYAMGWYRQAPGKERELVATISWRGGSTYYADSVKGRFTISRDNAKNTVYLQMNSLKPEDTAVYYCAAGYYPYWGQGTQVTVSS | low polyreactivity |
| QVQLVESGGGLVQAGGSLRLSCAASGRTFGIYVMGWYRQAPGKEMEWVAAIRGGGTTYYADSVKGRFTISRENAKNTVYLQMNSLKPEDTAVYYCAAVVKWWGQSRYDYWGQGTQVTVSS | high polyreactivity |
| QVQLVESGGGLVQAGGSLRLSCAASGRTFGKYAMGSYTQAPGKETELVAAISSSGGSTYYADSVKGRFTISRDNAKNTVYLQMNSVKPEDTAVYYCGARWSYRDDYWGQGTQVTVSS | high polyreactivity |
| QVQLVESGGGLVQAGGSLRLSCAASGRTFGKYAMGWDRQAPGKEMELVAAISTDVGDTYYADSVKGRFTISRDNAKNTVYLQMNSLKPEDTAVYYCAASFVYYGVDFVSWFWEGDYWGQGTQVTVSS | low polyreactivity |
| QVQLVESGGGLVQAGGSLRLSCAASGRTFGKYAMGWYRQAPGKERELVASITFSSGSTYYADSVKGRFTISRDNAKNTVYLQMNSLKPEDTAVYYCAKRGWGIYDYWGQGTQVTVSS | low polyreactivity |
| QVQLVESGGGLVQAGGSLRLSCAASGRTFGKYAMGWYRQAPGKERELVATISLSGGSTYYADSVKGRFTISRDNAKNTVYLQMNSLKPEDTAVYYCAARRKFDYWGQGTQVTVSS | high polyreactivity |
| QVQLVESGGGLVQAGGSLRLSCAASGRTFGKYAMGWYTQAPGKEREFVAAISWSGATTRYADSVKGRFTISRDNAKNTVYLQMNSLKPEDTAVYYCAATYYYVYGYRGDYWGQGTQVTVSS | high polyreactivity |
| QVQLVESGGGLVQAGGSLRLSCAASGRTFGKYTMGWYRQAPGKERELVAAINRRGGSTYYADSVKGRFTISRDNAKNTVYLQMNSLKPEDTAVYYCAKDGYSIDRYYWGQGTQVTVSS | high polyreactivity |
| QVQLVESGGGLVQAGGSLRLSCAASGRTFGLYAMGWYRQAPGKERELVAAIDQSTGSTYYADSVKGRFTISRDHAKNTVYLQMNSLKPEDTAVYYCAAEEASTVRYYWYDYWGQGTQVTVSS | high polyreactivity |

| Sequence | polyreactivity (PSR sort gate) |
| --- | --- |
| QVQLVESGGGLVQAGGSLRLSCAASGRTFGLYAMGWYRQAPGKERELVAAISWGGGRTYYADSVKGRFTISRDNAKNTVYLLMNSLKPEDTAVYYCNALYATYYLGYDYWGQGTQVTVSS | high polyreactivity |
| QVQLVESGGGLVQAGGSLRLSCAASGRTFGLYAMGWYRQAPGKERELVATISVSSGSTYYADSVKGRFTISRDNAKYTVYLQMNSLKPEDTAVYYCNVRYKRNRWQYDYWGQGTQVTVSS | high polyreactivity |
| QVQLVESGGGLVQAGGSLRLSCAASGRTFGLYDMGWYRQAPGKERELVAGITRRGGCTYYADSVKGRFTISRDNAKNTVYLQMYSLKPEDTAVYYCAAGTIYLRHAQSPFDYWGQGTQVTVSS | high polyreactivity |
| QVQLVESGGGLVQAGGSLRLSCAASGRTFGPNVIGWYRQAPGKERELVAAITSGGTTYYADSVKGRFTISRDNAKNTVYLQMNSLKPEDTAVYYCNARYVYHSSFAGFDYWGQGTQVTVSS | low polyreactivity |
| QVQLVESGGGLVQAGGSLRLSCAASGRTFGPYAMGWYRQAPGKEREFVAAISYSGGSTYYADSVKGRFTISRDNAKNTVYLQMNSLKPEDTAVYYCAVDIDSNSGTRDYWGQGTQVTVSS | low polyreactivity |
| QVQLVESGGGLVQAGGSLRLSCAASGRTFGQYAMGWYRQAPGKERELVAAITGGGSTNYADSVKGRFTISRDNAKNTVYLHMNSLKPEDTAVYYCAAKARSYWYPRLYIYEGDYWGQGTQVTVSS | low polyreactivity |
| QVQLVESGGGLVQAGGSLRLSCAASGRTFGQYAMGWYRQAPGKERELVAAITTRGGSTYYADSVKGRFTISRDNAKNTVYLQMNSLKPEDTAVYYCIADYPVKRRRGRDYWGQGTQVTVSS | high polyreactivity |
| QVQLVESGGGLVQAGGSLRLSCAASGRTFGQYVMGWYRQAPGKERELVAAISSGDSTNYADSVKGRFTISRDNAKNTVYFQMNSLKPEDTAVYYCAAVYWVLWQGSTYGYWGQGTQVTVSS | low polyreactivity |
| QVQLVESGGGLVQAGGSLRLSCAASGRTFGRNAMGWYRQAPGERELVAVISRRGSTYYADSVKGRFTISRDNAKNTVYLQMNSLKPEETAVDYCAAYYYIGGKYGSQVYEYDYWGQGTQVTVSS | low polyreactivity |
| QVQLVESGGGLVQAGGSLRLSCAASGRTFGRNAMGWYRQAPGKERELVAAITWSGGRTYYADSVKGRFSISRDNAKNTVYLQMNSLKPEDTAVYYCARGSSSISIFYRYDYWGQGTQVTVSS | high polyreactivity |
| QVQLVESGGGLVQAGGSLRLSCAASGRTFGRYAKGWSRQAPGKERELVAAISYSTDSTYYADSVKGRFTISRDNAKNTDYLQMNSLKPEYTAVYYCATDSVNVGSYVGDKHDYWGHGTQVTVSS | low polyreactivity |
| QVQLVESGGGLVQAGGSLRLSCAASGRTFGRYAMGWYRQAPGKERELVAAISTSGGSTYYADSVKGRFTISRDNAKNTVYLQMNSLKPEDTAVYYCAATIGRRSYNQMYYWGQGTQVTVSS | high polyreactivity |
| QVQLVESGGGLVQAGGSLRLSCAASGRTFGRYAMGWYRQAPGKERELVAAISYSTDSTYYADSVKGRFTISRDNAKNTVYLQMNSLKPEDTAVYYCAADRLRTSGYKTIYDYWGQGTQVTVSS | low polyreactivity |
| QVQLVESGGGLVQAGGSLRLSCAASGRTFGRYAMGWYRQAPGKERELVAAITRSGGSTNYADSVKGRFTISRDNAKNTVYLQMNSLKPEDTAVYYCARRGYSVRTPEGYYWGQGTQVTVSS | high polyreactivity |
| QVQLVESGGGLVQAGGSLRLSCAASGRTFGRYAMGWYRQAPGKERELVAGISGSVGITYYADSVKGRFTISRDNAKNTVYLQMNSLKPEDTAVYYCAVVARAGHKYDYWGQGTQVTVSS | low polyreactivity |
| QVQLVESGGGLVQAGGSLRLSCAASGRTFGRYAMGWYRQAPGKERELVARIRTSGGRTYYADSVKGRFTISRDNAKYTVYLQMNSLKPEDTAVYYCATTSQPWYYWSTQGDDYWGQGTQVTVSS | low polyreactivity |
| QVQLVESGGGLVQAGGSLRLSCAASGRTFGRYAMGWYRQAPGKERELVARISFTGGSTYADSVKGRFTISRDNAKNTVYLQMNSLKPEDTAVYYCNVPYYINHKFYDSPFVQRYDYWGQGTQVTVSS | low polyreactivity |
| QVQLVESGGGLVQAGGSLRLSCAASGRTFGRYAMVWYRQAPGKEREFVASISRRGGTTYYADSVKGRFTISRDNAKNSVYLQMNSLKPEDTAVYYCNADRTVIYDYEYWGQGTQVTVSS | low polyreactivity |
| QVQLVESGGGLVQAGGSLRLSCAASGRTFGRYLMGWYRQAPGKERLLVAAISFSGTGTYYADSVKGRFTISRDNAKYTVYLQMNSLKPEDTAVYYCAKGVTRVQYKHYYWGQGTQVTVSS | high polyreactivity |
| QVQLVESGGGLVQAGGSLRLSCAASGRTFGRYSMGWYRQAPGKERELVAAISYSTDSTYYADSVKGRFTISRDNAKNTVYLQMNSLKPEDTAVYYCAALGYHRYRNYDYWGQGTQVTVSS | low polyreactivity |
| QVQLVESGGGLVQAGGSLRLSCAASGRTFGSNAMGWYRQAPGKERELVANIDGGGGTYADSVKGRFTISRDNAKNTVYLQMNSLKPEDTAVYYCATRWSGYDMDYWGQGTQVTVSS | low polyreactivity |
